Assay results reported in patent US8975044B2, “Polynucleotides encoding for frizzled-binding agents and uses thereof” (OncoMed Pharmaceuticals, Inc., priority 2008, dated 2015).

T1: FZD8 (Homo sapiens, UniProt Q9H461, E68Q/V69L)
T1 construct: N-terminus of the Fri domain of FZD8 in turn fused to the transmembrane domain and intracellular domain of CD4 protein; expressed in transfected cells; host or cells: HEK293
T1 sequence (Q9H461 28-158 E68Q/V69L): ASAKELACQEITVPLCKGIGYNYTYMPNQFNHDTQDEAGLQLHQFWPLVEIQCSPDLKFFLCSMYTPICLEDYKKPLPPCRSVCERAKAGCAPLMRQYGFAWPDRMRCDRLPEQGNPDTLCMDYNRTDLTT

T2: FZD8 (Homo sapiens, UniProt Q9H461, G66A/L67A)
T2 construct: N-terminus of the Fri domain of FZD8 in turn fused to the transmembrane domain and intracellular domain of CD4 protein; expressed in transfected cells; host or cells: HEK293
T2 sequence (Q9H461 28-158 G66A/L67A): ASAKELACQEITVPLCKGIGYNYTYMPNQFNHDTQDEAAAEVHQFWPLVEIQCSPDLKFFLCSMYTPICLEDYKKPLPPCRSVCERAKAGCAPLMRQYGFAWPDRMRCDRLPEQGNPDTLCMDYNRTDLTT

T3: FZD8 (Homo sapiens, UniProt Q9H461, H70A/Q71E)
T3 construct: N-terminus of the Fri domain of FZD8 in turn fused to the transmembrane domain and intracellular domain of CD4 protein; expressed in transfected cells; host or cells: HEK293
T3 sequence (Q9H461 28-158 H70A/Q71E): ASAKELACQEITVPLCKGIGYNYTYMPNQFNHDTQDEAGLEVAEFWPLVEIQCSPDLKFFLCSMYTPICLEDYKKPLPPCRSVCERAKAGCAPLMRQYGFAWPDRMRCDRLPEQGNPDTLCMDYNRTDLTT


Columns and labels:
FZD8 [1] = target: T1, FZD8; test: Epitope mapping by FACS on FZD8 Fri domain variants on HEK293 cells; type: binding; conditions: amino acids 68-69 mutated from EV to QL
Experimental: (§1) To identify the FZD epitope recognized by the 18R8 IgG antibody, epitope mapping was performed. Flow cytometry analysis of cell surface expressed FZD was utilized to measure antibody binding. Mammalian expression plasmid vectors comprising a CMV promoter upstream of polynucleotides that encode an N-terminal signal sequence FLAG epitope tag fused to the N-terminus of the Fri domain of FZD8 in turn fused to the transmembrane domain and intracellular domain of CD4 protein were generated by standard recombinant technology. This expression construct allows expression of the FZD8 Fri domain on the cell surface, as well as expression of a FLAG epitope tag to monitor expression. Site-direct mutagenesis was then used to modify selected amino acids within the extracellular domain of FZD. HEK293 cells were co-transfected with expression vectors encoding the FZD and the transfection marker GFP. Forty-eight hours post-transfection, cells were collected in suspension and incubated on ice with anti-FZD antibody or control IgG to detect background antibody binding. The cells were washed and primary antibodies detected with anti-antibody secondary antibodies conjugated to a fluorescent chromophore. Labeled cells were then analyzed by flow cytometry to measure the binding of anti-FZD antibody to cell surface FZD.
(§2) Epitope mapping for the anti-FZD antibody 44R24 was performed in a manner similar to that described above in Example 5 for the antibodies 18R8 and 18R5. The ability of 44R24 to bind to a similar epitope as 18R8 was assessed by flow cytometry using a series of amino acid variants of FZD8 previously shown to disrupt binding of 18R8 (see Example 5 and FIGS. 6 and 7).

FZD8 [2] = target: T2, FZD8; test: as above; type: binding; conditions: amino acids 66-67 mutated from GL to AA
Experimental: as §1, §2

FZD8 [3] = target: T3, FZD8; test: as above; type: binding; conditions: residues 70-71 changed from HQ to AE
Experimental: as §1, §2

Wnt signaling = test: Inhibition of Wnt3a-induced Super Top Flash reporter activity in STF-293 cells; type: cell-based, human; conditions: for IC50: Wnt3a-conditioned medium, 20-0.0003 μg/ml, triplicate
Experimental: STF cells are Human Embryonic Kidney (HEK)-293 cells stably transfected with the Super Top Flash (STF) reporter cassette in which the expression of the Luciferase (Luc) reporter gene is regulated by multiple copies of the TCF binding site upstream of a minimal promoter. A low basal Luc expression can be induced 30-60 fold in response to Wnt3a, providing a large window to assess the inhibitory activity of the anti-Fzd Abs.
To assess the mAbs, STF-293 cells were grown in DMEM-10% FBS. On day 1, 10,000 cells were plated per well in 96-well Optical Bottom White plates (Nunc #165306). The cells were incubated O.N. at 37° C. and 5% CO2. On day 2, the Abs to be tested were diluted to a final concentration of […] using culture medium. Seven 5-fold serial dilutions were performed. The STF-293 cells culture medium was replaced with a mixture containing 50 μA Ab dilution, 25 μA Wnt3a-conditioned medium from Wnt3a stable L-cells and 25 μA DMEM-10% FBS. For each Ab, the final concentrations tested were 20, 4, 0.8, 0.16, 0.03, 0.006, 0.0013, 0.0003 μg/ml. Each Ab concentration was tested in triplicate. A human anti-hapten Ab, LZ1, was used as negative control Ab. A non-Wnt3a-conditioned medium from parental L-cells was used as negative control inducer. The plates were returned to the incubator. Luciferase activity was measured on day 3, using Promega Steady Glo kit (VWR #PAE2550-A) according to the manufacturer specifications. The results were expressed in photons per sec. GraphPad Prism software was used to graph and analyze the data. Luciferase activities were plotted as a function of Ab concentration to establish dose-response curves. A non-linear regression was applied to the numbers to fit the curve and calculate IC50s.

Axin2 = Axin2 mRNA level in A549 cells by qPCR; type: cell-based, human; conditions: 5-0.008 μg/ml, 24 hours, relative to LZ1 control
Experimental: A549 cells are human lung carcinoma cells in which the Axin2 gene is highly expressed, translating endogenous activity of Wnt signaling. Axin2 is a well know Wnt target gene that responds to activation of the pathway by up-regulating its transcription and eventually down-regulating Wnt signaling through a feed-back loop mechanism. This system was used to test the impact of the anti-Fzd Abs on Axin2 mRNA levels by qPCR.
12-well plates were seeded with 30,000 A549 cells per well and grown for 3 days in DMEM+10% FBS. Antibodies were added at varying concentrations (5 1, 0.2, 0.04, 0.008 μg/ml) for 24 hours and total RNA was extracted from the cells. LZ1, a nonbinding antibody, was used as negative control at only the highest concentration.
30,000 A549 cells were seeded into 12-well plates and grown for 3 days in DMEM+10% FBS. Anti-FZD antibody 18R5 or 44R24 were added at varying concentrations (5, 1, 0.2, 0.04, 0.008 ug/ml), and LZ1, a nonbinding antibody, was used as a negative control at only the highest concentration. RNA was made 24 hours post treatment and then treated with Dnase.
Axin2 is known to be a robust target gene in Wnt signaling and its expression level was examined by doing a Taqman relative expression (ΔΔCT) assay using an Applied Biosystems 7900 HT machine. 50 ng of RNA was used per point in triplicate and a GUSB probe was used for endogenous control. […]

| Molecule | binding to FZD8 variant (FZD8 [1]) | binding to FZD8 variant (FZD8 [2]) | binding to FZD8 variant (FZD8 [3]) | IC50 (Wnt signaling) [nM] | inhibition of basal level of axin2 gene expression (Axin2) | IC50 relative to 18R5's (Wnt signaling) [fold] |
| --- | --- | --- | --- | --- | --- | --- |
| 18R5: human anti-FZD antibody; VH SEQ ID NO:10 (as 18R8), VL SEQ ID NO:14; binds FZD1, 2, 5, 7, 8 (antibody, V domains shown, 18R5/18R8 heavy chain variable region (VH); 18R5 light chain variable region (VL)) VH: EVQLVESGGGLVQPGGSLRLSCAASGFTFSHYTLSWVRQAPGKGLEWVSVISGDGSYTYYADSVKGRFTISSDNSKNTLYLQMNSLRAEDTAVYYCARNFIKYVFANWGQGTLVTVSS VL: DIELTQPPSVSVAPGQTARISCSGDNIGSFYVHWYQQKPGQAPVLVIYDKSNRPSGIPERFSGSNSGNTATLTISGTQAEDEADYYCQSYANTLSLVFGGGTKLTVLG | reduced staining | reduced staining | reduced staining | 2.73 | inhibit Axin2 basal levels |  |
| 18R8: human anti-FZD antibody from phage display; VH SEQ ID NO:10, VL SEQ ID NO:12; binds FZD1, 2, 5, 7, 8 (antibody, V domains shown, 18R5/18R8 heavy chain variable region (VH); 18R8 light chain variable region (VL)) VH: EVQLVESGGGLVQPGGSLRLSCAASGFTFSHYTLSWVRQAPGKGLEWVSVISGDGSYTYYADSVKGRFTISSDNSKNTLYLQMNSLRAEDTAVYYCARNFIKYVFANWGQGTLVTVSS VL: DIELTQPPSVSVAPGQTARISCSGDKLGKKYASWYQQKPGQAPVLVIYEKDNRPSGIPERFSGSNSGNTATLTISGTQAEDEADYYCSSFAGNSLEVFGGGTKLTVLG | similarly lost | similarly lost | clearly diminished |  |  |  |
| 44R24: anti-FZD5/8 IgG antibody, VH SEQ ID NO:85, VL SEQ ID NO:86; ATCC deposit no. PTA-10311 (antibody, V domains shown, 44R24 VH; 44R24 VL, ATCC deposit no; PTA-10311) VH: EVQLVESGGGLVQPGGSLRLSCAASGFTFSSYYITWVRQAPGKGLEWVSTISYSSSNTYYADSVKGRFTISRDNSKNTLYLQMNSLRAEDTAVYYCARSIVFDYWGQGTLVTVSS VL: DIELTQPPSVSVAPGQTARISCSGDALGNRYVYWYQQKPGQAPVLVIPSGIPERFSGSNSGNTATLTISGTQAEDEADYYCGSWDTRPYPKYVFGGGTKLTVLG |  |  |  | 34.4 | inhibit Axin2 basal levels | 13 |
